Patent publication US20140087972, “METHOD OF IMMOBILISING RNA ONTO A SURFACE” (UNIVERSITY OF PORTSMOUTH, published 2014)

What was measured:
[1] = molecular target: T1, streptavidin (UniProt P22629 P22629:25-183); experiment: no-aptamer control, sandwich print slide capture, 37 C, PBS washes; conditions: chain copies: 4 inferred; label: Cy3-UTP incorporated
Protocol: (§1) ˜10 μl spots of 5 mM tobramycin or 16.6 μM streptavadin in PBS were pipetted onto NHS-activated slides (Schott Nexterion Slide H). The slides were incubated at 37° C. in a humidified petri dish for ˜1 hour. The slides were washed ˜3× with ˜5 ml PBST (0.5% Tween) and ˜1× with H₂O. The remainder of the NHS-activated surface was blocked with ethanolamine. ˜5 ml of 50 mM ethanolamine-HCl was used to cover the slides and they were incubated at room temperature for ˜1 hr. The slides were washed ˜3× with ˜5 ml PBST (0.5% Tween), 1× with H₂O and dried in air.
(§2) Following incubation at 37° C. for ˜1-4 hrs, the slides were separated and the in vitro transcription mix was recovered from the slide surface using a pipette. The DNA template slide was washed ˜3× with ˜5 ml PBS, ˜1× with ˜5 ml H₂O and air dried. The RNA-binding slide was washed ˜3× with ˜5 ml PBS, ˜1×˜5 ml H₂O and air dried. Cy-labelled RNA was visualized at 532 nm for Cy3 or 639 nm for Cy5. For unlabelled RNA, the RNA-binding slide was stained by covering the slide with ˜5 ml SYBR gold (Invitrogen, Paisley, UK; 5 μl of SYBR gold in ˜25 ml PBS) for 10 minutes and visualised with a UV transilluminator.
(§3) Only the MicASAApt, incorporating the stretpavadin aptamer, bound to the streptavidin RNA-binding slide. […]

[2] = molecular target: T1, streptavidin; experiment: sandwich print slide capture, T7 transcription mix, 37 C, PBS washes; conditions: chain copies: 4 inferred; label: Cy3-UTP incorporated
Protocol: as §1, §2, §3

[3] = molecular target: T1, streptavidin; experiment: sandwich print slide capture, 37 C, PBS washes; conditions: chain copies: 4 inferred
[4] = molecular target: T1, streptavidin; experiment: bound streptavidin spot on slide also carrying tobramycin spot, 37 C, PBS washes; conditions: chain copies: 4 inferred; label: Cy3-UTP incorporated
Protocol: as §1, §2

T1 sequence (P22629 25-183, one chain of several): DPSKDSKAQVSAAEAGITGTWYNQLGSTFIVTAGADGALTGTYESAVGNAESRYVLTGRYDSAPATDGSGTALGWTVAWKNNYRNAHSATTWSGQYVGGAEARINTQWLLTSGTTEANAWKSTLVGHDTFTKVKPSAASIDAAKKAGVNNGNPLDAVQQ

B1: MicA RNA without aptamer (ssRNA)
RNA: GGGGAAAGACGCGCAUUUGUUAUCAUCAUCCCUGAAUUCAGAGAUGAAAUUUUGGCCACUCACGAGUGGCCUUUU
B1: no binding [1].

B2: MicASAApt RNA (ssRNA)
RNA: GGGGAAAGACGCGCAUUUGUUAUCAUCAUCCCUGAAUUCAGAGAUGAAAUUUUGGCCACUCACGAGUGGCCUUUUACACACACACACACACACACGCAUGCAUACCGACCAGAAUCAUGCAAGUGCGUAAGAUAGUCGCGGGCCGGGAUGCAUGC
B2: binds [2].

B3: Qrr1SAApt RNA (ssRNA)
RNA: GGGUGACCCGCAAGGGUCACCUAGCCAACUGACGUUGUUAGUGAAUAAUCAAUGUUCACAAAUAACAGCCAAUAGACUCAUUCUAUUGGCUAUUUUUUUUUUUUUUUUUUUUUUUUUUUUGUGUGACCGACCAGAAUCAUGCAAGUGCGUAAGAUAGUCGCGGGCCGGGCACACA
B3: binds ([3]; label: Cy5-UTP incorporated).

B4: M-SSAApt RNA (ssRNA)
RNA: GAAAGACGCGCAUUUGUUAUCAUCAUCCCUGGGAAAGCGAGGCUUUCCCUGGCCACUCACGAGUGGCCUUUUACACACACACACACACACACGCAUGCAUACCGACCAGAAUCAUGCAAGUGCGUAAGAUAGUCGCGGGCCGGGAUGCAUGC
B4: binds [4].

B5: U1SAApt RNA (ssRNA)
RNA: GGGUAUCCAUUGCACUCCGGAUGCCUUUUUUUUUUUUUUUUUUUUUGUGUGACCGACCAGAAUCAUGCAAGUGCGUAAGAUAGUCGCGGGCCGGGCACACA
B5: binds ([3]; label: Cy3-UTP incorporated).
